Measured values from PMC10155992.

Key:
[1] = target: VP3, inner capsid protein of mud crab reovirus (MCRV) (mud crab reovirus (MCRV)); experiment: cryo-EM structure; single-particle cryo-EM of purified MCRV virions, quiescent (qMCRV) and transcribing (tMCRV), in PBS; icosahedral, C1 and D5 reconstructions; atomic models built de novo
[2] = target: VP12, major outer capsid protein of mud crab reovirus (MCRV) (mud crab reovirus (MCRV)); experiment: as above

Substance: VP3, inner capsid protein of mud crab reovirus (MCRV) (natural protein)
- stoichiometry N [1]: 2

Substance: VP12, major outer capsid protein of mud crab reovirus (MCRV) (natural protein)
- stoichiometry N [2]: 3
